According to IntAct's records for PubMed 20562859:

B1: Gamma-aminobutyric acid receptor-associated protein (Homo sapiens), O95166 (parent)
chain: MKFVYKEEHPFEKRRSEGEKIRKKYPDRVPVIVEKAPKARIGDLDKKKYLVPSDLTVGQFYFLIRKRIHLRAEDALFFFVNNVIPPTSATMGQLYQEHHEEDFFLYIAYSDESVYGL
partner: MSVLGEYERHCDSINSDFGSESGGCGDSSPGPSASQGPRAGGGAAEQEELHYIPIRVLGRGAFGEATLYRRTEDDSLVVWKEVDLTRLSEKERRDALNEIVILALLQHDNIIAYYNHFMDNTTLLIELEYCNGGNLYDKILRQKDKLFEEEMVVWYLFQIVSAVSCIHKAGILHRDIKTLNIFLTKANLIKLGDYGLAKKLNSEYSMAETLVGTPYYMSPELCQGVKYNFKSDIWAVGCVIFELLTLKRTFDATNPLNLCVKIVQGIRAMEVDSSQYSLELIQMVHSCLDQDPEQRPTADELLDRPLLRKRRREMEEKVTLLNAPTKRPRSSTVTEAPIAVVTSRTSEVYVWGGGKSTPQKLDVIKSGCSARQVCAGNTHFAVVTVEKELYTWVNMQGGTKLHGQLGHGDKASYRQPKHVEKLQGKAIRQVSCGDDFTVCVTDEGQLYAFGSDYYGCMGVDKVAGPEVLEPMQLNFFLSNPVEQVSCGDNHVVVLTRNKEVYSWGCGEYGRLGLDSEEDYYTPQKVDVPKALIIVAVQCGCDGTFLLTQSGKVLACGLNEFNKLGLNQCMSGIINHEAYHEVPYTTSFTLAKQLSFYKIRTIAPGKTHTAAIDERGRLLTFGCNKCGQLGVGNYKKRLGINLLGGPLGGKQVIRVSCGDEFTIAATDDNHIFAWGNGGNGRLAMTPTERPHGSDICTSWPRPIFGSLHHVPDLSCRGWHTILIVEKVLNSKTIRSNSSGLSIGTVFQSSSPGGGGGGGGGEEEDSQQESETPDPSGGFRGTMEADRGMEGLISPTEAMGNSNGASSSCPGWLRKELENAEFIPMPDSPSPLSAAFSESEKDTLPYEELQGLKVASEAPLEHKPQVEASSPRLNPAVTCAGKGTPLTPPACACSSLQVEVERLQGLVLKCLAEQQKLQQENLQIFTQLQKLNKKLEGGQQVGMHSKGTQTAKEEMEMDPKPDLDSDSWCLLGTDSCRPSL
B2: Gamma-aminobutyric acid receptor-associated protein (Homo sapiens), O95166 (parent)
chain: B1 chain
partner: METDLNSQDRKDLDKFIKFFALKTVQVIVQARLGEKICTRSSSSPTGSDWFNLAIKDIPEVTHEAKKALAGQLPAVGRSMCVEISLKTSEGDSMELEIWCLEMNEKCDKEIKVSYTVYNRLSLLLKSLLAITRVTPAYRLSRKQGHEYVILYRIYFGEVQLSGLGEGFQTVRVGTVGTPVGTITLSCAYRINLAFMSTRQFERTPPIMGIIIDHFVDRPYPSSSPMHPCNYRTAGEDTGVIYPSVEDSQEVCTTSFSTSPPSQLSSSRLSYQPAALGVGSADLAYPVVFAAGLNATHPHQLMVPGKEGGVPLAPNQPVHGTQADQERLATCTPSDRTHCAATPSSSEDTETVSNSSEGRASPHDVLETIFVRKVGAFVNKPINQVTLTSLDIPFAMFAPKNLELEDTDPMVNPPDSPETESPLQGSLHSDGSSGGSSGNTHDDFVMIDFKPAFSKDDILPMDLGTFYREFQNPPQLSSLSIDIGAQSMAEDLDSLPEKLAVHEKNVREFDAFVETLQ
B3: Gamma-aminobutyric acid receptor-associated protein (Homo sapiens), O95166 (parent)
chain: B1 chain
partner: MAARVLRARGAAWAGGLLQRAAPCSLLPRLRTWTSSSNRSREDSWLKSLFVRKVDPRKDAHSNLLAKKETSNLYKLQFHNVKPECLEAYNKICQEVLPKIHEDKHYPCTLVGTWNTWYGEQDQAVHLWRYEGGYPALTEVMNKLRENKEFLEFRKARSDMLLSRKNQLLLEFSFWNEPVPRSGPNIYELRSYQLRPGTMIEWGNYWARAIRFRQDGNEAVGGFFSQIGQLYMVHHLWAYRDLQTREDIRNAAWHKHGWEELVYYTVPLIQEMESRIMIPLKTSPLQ
B4: Gamma-aminobutyric acid receptor-associated protein (Homo sapiens), O95166 (parent)
chain: B1 chain
partner: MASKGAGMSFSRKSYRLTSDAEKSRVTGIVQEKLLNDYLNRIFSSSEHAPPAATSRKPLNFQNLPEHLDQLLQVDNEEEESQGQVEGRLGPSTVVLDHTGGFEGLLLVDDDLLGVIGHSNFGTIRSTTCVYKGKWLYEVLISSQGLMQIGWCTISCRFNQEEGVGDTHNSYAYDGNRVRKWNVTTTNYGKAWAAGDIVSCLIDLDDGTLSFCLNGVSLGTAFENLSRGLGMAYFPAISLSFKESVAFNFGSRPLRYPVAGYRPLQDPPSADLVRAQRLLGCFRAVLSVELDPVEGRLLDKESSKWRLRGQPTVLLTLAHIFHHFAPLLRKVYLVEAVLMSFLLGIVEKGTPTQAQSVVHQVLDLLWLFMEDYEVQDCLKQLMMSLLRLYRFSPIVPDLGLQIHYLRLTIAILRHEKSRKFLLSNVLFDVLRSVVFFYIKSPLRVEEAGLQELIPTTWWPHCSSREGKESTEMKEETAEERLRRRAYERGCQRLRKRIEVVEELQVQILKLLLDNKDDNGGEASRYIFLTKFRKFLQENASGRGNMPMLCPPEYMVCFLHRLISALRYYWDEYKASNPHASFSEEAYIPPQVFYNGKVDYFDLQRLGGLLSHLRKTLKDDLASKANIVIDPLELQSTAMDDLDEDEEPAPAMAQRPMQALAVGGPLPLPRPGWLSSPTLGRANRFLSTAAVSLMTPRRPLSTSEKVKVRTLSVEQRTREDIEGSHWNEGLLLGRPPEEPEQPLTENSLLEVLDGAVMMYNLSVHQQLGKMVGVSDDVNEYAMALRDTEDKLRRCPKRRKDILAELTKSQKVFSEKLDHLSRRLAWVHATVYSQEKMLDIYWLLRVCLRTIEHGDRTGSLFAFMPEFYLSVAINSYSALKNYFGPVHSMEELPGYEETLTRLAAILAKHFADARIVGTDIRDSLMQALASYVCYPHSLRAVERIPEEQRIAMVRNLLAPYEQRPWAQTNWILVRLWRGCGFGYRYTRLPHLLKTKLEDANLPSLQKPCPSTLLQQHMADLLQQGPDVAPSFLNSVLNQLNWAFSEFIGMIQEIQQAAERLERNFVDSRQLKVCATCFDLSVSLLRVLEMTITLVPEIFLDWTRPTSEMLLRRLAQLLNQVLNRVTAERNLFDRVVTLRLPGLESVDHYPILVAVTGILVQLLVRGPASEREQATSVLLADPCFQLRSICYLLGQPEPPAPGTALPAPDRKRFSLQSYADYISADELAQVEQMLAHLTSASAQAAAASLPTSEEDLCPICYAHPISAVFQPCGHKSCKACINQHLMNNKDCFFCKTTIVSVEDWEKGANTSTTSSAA
B5: Gamma-aminobutyric acid receptor-associated protein (Homo sapiens), O95166 (parent)
chain: B1 chain
partner: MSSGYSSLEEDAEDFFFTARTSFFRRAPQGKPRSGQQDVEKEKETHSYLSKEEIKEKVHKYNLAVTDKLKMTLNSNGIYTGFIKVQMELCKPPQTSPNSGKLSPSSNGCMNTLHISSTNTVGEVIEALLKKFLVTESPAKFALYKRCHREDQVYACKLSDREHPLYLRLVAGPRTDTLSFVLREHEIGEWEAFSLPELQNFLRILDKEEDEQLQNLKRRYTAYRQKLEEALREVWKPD
B6: Gamma-aminobutyric acid receptor-associated protein (Homo sapiens), O95166 (parent)
chain: B1 chain
B7: Gamma-aminobutyric acid receptor-associated protein (Homo sapiens), O95166 (parent)
chain: B1 chain
partner: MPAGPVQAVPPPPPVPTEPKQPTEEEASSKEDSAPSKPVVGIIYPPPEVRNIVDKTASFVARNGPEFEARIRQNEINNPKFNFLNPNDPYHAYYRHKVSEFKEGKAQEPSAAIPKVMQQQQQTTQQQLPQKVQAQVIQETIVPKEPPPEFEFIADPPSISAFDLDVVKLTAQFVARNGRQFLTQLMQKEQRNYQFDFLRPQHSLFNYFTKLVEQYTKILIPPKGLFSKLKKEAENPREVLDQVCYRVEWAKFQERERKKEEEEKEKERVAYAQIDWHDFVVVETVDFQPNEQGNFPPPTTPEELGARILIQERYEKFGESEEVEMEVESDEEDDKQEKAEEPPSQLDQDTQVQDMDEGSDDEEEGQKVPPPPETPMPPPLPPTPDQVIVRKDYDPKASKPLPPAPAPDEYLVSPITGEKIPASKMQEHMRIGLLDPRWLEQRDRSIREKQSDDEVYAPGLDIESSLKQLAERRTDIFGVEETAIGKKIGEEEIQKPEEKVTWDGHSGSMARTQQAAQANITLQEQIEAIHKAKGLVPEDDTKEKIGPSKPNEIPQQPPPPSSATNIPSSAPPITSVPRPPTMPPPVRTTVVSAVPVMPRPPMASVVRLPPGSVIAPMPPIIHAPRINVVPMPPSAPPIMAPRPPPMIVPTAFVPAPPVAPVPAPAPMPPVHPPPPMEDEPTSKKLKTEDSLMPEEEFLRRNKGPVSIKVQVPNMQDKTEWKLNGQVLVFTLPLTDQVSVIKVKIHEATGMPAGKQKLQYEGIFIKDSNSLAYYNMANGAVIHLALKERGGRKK
B8: Gamma-aminobutyric acid receptor-associated protein (Homo sapiens), O95166 (parent)
chain: B1 chain
partner: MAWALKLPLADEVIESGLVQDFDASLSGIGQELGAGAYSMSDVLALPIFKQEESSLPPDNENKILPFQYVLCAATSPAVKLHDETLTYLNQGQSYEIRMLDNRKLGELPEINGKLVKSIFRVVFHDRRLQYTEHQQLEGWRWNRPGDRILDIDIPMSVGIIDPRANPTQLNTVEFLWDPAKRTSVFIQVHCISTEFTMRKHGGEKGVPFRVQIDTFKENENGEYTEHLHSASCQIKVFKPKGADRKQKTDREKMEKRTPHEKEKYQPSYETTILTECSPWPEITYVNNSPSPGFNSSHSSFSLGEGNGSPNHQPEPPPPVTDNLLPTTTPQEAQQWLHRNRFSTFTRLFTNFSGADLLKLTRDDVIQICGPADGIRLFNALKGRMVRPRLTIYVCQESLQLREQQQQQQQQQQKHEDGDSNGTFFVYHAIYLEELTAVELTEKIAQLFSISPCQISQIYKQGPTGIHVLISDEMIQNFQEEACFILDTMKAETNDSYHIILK

Variants of: B1
Conditions: with nek9_human NEK9, Q8TD19

Variant	effect of a mutation on the interaction
Y49A;L50A	decreasing interaction

Variants of: B2
Conditions: with atg13_human ATG13, O75143

Variant	effect of a mutation on the interaction
Y49A;L50A	decreasing interaction

Variants of: B3
Conditions: with nips2_human NIPSNAP2, O75323

Variant	effect of a mutation on the interaction
Y49A;L50A	increasing interaction

Variants of: B4
Conditions: with rn123_human RNF123, Q5XPI4

Variant	effect of a mutation on the interaction
Y49A;L50A	decreasing interaction

Variants of: B5
Conditions: with rasf3_human RASSF3, Q86WH2

Variant	effect of a mutation on the interaction
Y49A;L50A	decreasing interaction

Variants of: B6
Conditions: with atg2a_human ATG2A

Variant	effect of a mutation on the interaction
Y49A;L50A	decreasing interaction

Variants of: B6
Conditions: with atg3_human ATG3, Q9NT62
Sequence of atg3_human ATG3, Q9NT62 (Q9NT62 whole entry): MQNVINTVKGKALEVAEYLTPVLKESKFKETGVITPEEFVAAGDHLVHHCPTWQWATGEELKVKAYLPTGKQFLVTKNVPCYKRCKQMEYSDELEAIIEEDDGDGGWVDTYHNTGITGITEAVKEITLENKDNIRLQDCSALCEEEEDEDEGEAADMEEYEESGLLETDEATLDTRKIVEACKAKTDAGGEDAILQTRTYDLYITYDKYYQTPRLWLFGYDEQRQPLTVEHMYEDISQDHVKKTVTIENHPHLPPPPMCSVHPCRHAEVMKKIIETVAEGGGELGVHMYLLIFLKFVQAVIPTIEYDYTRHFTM

Variant	effect of a mutation on the interaction
Y49A;L50A	disrupting interaction

Variants of: B6
Conditions: with echa_human HADHA

Variant	effect of a mutation on the interaction
Y49A;L50A	decreasing interaction

Variants of: B6
Conditions: with nedd4_human NEDD4, P46934
Sequence of nedd4_human NEDD4, P46934 (P46934 whole entry): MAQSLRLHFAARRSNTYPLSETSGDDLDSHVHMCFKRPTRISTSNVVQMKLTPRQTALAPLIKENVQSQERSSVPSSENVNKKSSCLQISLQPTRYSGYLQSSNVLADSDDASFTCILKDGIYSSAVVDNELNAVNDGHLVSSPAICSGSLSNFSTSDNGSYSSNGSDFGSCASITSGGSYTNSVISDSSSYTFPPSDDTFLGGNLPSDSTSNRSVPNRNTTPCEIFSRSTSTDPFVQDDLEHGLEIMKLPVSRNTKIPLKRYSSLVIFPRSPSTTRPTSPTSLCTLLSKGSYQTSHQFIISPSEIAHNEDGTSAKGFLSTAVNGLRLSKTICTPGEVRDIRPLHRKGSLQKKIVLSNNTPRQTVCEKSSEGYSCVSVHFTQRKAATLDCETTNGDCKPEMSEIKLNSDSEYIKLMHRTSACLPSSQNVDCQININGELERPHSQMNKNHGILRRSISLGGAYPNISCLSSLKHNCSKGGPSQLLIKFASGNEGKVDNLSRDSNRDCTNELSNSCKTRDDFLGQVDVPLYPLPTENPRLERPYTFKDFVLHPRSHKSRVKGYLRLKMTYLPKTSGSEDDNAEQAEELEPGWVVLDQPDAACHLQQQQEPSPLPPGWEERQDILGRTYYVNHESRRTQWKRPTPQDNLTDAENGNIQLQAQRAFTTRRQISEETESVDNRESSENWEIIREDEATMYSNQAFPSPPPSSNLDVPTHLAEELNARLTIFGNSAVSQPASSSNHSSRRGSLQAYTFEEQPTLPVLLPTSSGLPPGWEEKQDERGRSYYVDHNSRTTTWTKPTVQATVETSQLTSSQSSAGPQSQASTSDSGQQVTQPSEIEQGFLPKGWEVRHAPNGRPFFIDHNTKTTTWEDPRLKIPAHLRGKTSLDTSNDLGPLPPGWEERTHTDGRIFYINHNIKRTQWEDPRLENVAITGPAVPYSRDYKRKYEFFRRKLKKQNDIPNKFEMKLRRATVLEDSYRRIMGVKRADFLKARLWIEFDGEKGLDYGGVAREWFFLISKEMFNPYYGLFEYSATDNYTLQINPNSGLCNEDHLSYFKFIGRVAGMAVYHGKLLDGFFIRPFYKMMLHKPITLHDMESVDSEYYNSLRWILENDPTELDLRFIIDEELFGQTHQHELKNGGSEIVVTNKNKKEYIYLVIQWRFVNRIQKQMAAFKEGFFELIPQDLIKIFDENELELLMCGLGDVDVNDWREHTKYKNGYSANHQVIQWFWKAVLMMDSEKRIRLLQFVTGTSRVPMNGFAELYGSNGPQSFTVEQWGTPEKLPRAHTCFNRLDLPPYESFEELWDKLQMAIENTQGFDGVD

Variant	effect of a mutation on the interaction
Y49A;L50A	disrupting interaction

Variants of: B7
Conditions: with sf3a1_human SF3A1, Q15459

Variant	effect of a mutation on the interaction
Y49A;L50A	decreasing interaction

Variants of: B8
Conditions: with tfcp2_human TFCP2, Q12800

Variant	effect of a mutation on the interaction
R71A	increasing interaction
Y49A;L50A	decreasing interaction
